The numbers were not newly measured in publication PMC12608641, which cites them from elsewhere.

The target of this series is p55 (Homo sapiens) (UniProt Q9UHN1). Kind of series: ultracentrifugation.

The term Kd denotes the constant that tells how readily two partners part at equilibrium. Consider p55 (from UniProt Q9UHN1), for which the Kd is below 0.1 nM.
